Data reported in US20210324028A1 (Pfizer, published 2021).
Changes are numbered by the printed parent chain. Numbers in names are those of the source.

T1: human IL-2Rβ (human, UniProt P14784 27-240, limits assumed)
T1 construct: also called hIL-2Rβ; IL-2 receptor beta
T1 sequence (looked up): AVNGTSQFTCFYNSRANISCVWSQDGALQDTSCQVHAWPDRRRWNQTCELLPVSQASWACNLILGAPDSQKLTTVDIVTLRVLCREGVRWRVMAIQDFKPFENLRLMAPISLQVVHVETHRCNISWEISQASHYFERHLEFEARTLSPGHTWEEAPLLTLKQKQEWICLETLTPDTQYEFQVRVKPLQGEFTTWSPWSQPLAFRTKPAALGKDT

B1: xmPD-1-hIL15 V49R/E46G/E64Q/D30N/I68S (other)
heavy 1: HHHHHHHHGGGGSGSGGEVQLVESGGGLVKPGGSLELSCAASGFTFSSYWMSWVRQAPEKGLEWVAAISPSGGSTYYADSVKGRFTISRDNAKNTLFLQMTSLRSEDTAMYYCAKESWGAYYDLWGQGTTVTVSSASTKGPSVFPLAPCSRSTSESTAALGCLVKDYFPEPVTVSWNSGALTSGVHTFPAVLQSSGLYSLSSVVTVPSSNFGTQTYTCNVDHKPSNTKVDKTVERKCRVRCPRCPAPPVAGPSVFLFPPKPKDTLMISRTPEVTCVVVAVSHEDPEVQFNWYVDGVEVHNAKTKPREEQFNSTFRVVSVLTVVHQDWLNGKEYKCKVSNKGLPSSIEKTISKTKGQPREPQVYTLPPSREEMTKNQVSLTCLVKGFYPSDIAVEWESNGQPENNYKTTPPMLDSDGSFFLYSRLTVDKSRWQQGNVFSCSVMHEALHNHYTQKSLSLSPGK
heavy 2: EVQLVESGGGLVKPGGSLELSCAASGFTFSSYWMSWVRQAPEKGLEWVAAISPSGGSTYYADSVKGRFTISRDNAKNTLFLQMTSLRSEDTAMYYCAKESWGAYYDLWGQGTTVTVSSASTKGPSVFPLAPCSRSTSESTAALGCLVKDYFPEPVTVSWNSGALTSGVHTFPAVLQSSGLYSLSSVVTVPSSNFGTQTYTCNVDHKPSNTKVDKTVERKCEVECPECPAPPVAGPSVFLFPPKPKDTLMISRTPEVTCVVVAVSHEDPEVQFNWYVDGVEVHNAKTKPREEQFNSTFRVVSVLTVVHQDWLNGKEYKCKVSNKGLPSSIEKTISKTKGQPREPQVYTLPPSREEMTKNQVSLTCEVKGFYPSDIAVEWESNGQPENNYKTTPPMLDSDGSFFLYSKLTVDKSRWQQGNVFSCSVMHEALHNHYTQKSLSLSPGSGGGGGTSATATPGANWVNVISDLKKIEDLIQSMHIDATLYTESNVHPSCKVTAMKCFLLGLQRISLESGDASIHDTVQNLISLANNSLSSNGNVTESGCKECEELEEKNIKEFLQSFVHIVQMFINT
light: DIVMTQSPSSLSVSAGDKVTMSCRASQGISSWLAWYQQKPWQPPKLLIYKASTLESGVPDRFTGSGSGTDFTLTISSVQAEDLAVYYCQQSYSTPWTFGGGTKLEIKGTVAAPSVFIFPPSDEQLKSGTASVVCLLNNFYPREAKVQWKVDNALQSGNSQESVTEQDSKDSTYSLSSTLTLSKADYEKHKVYACEVTHQGLSSPVTKSFNRGEC
notes: not restated for this mutant; also called xmPD1-hIL15_V49R-E46G-E64Q-I68S-D30N
B2: xmPD-1-hIL15 V49R/E46G/E64Q/D30N/I68S/M109A (other)
heavy 1: B1 heavy 1
heavy 2: B1 heavy 2 with M567A
light: B1 light
notes: not restated for this mutant; also called xmPD1-hIL15_V49R-E46G-E64Q-I68S-D30N-M109A
B3: xmPD-1-hIL15 V49R/E46G/E64Q/D30N/N4K/M109A (other)
heavy 1: B1 heavy 1
heavy 2: B1 heavy 2 with N462K, S526I, M567A
light: B1 light
notes: not restated for this mutant; also called xmPD1-hIL15_V49R-E46G-E64Q-N4K-D30N-M109A; xmPD-1-hIL15 VS49R/E46G/E64Q/D30N/N4K/M109A
B4: xmPD-1-hIL15 V49R/E46G/E64Q/D30N/N4K (other)
heavy 1: B1 heavy 1
heavy 2: B1 heavy 2 with N462K, S526I
light: B1 light
notes: not restated for this mutant; also called xmPD1-hIL15_V49R-E46G-N4K-E64Q-D30N
B5: xmPD-1-hIL15Rasu-hIL15(E64Q/D30N/M109A) (other)
heavy 1: B1 heavy 1
heavy 2: EVQLVESGGGLVKPGGSLELSCAASGFTFSSYWMSWVRQAPEKGLEWVAAISPSGGSTYYADSVKGRFTISRDNAKNTLFLQMTSLRSEDTAMYYCAKESWGAYYDLWGQGTTVTVSSASTKGPSVFPLAPCSRSTSESTAALGCLVKDYFPEPVTVSWNSGALTSGVHTFPAVLQSSGLYSLSSVVTVPSSNFGTQTYTCNVDHKPSNTKVDKTVERKCEVECPECPAPPVAGPSVFLFPPKPKDTLMISRTPEVTCVVVAVSHEDPEVQFNWYVDGVEVHNAKTKPREEQFNSTFRVVSVLTVVHQDWLNGKEYKCKVSNKGLPSSIEKTISKTKGQPREPQVYTLPPSREEMTKNQVSLTCEVKGFYPSDIAVEWESNGQPENNYKTTPPMLDSDGSFFLYSKLTVDKSRWQQGNVFSCSVMHEALHNHYTQKSLSLSPGSGGGGGTSATATPGAITCPPPMSVEHADIWVKSYSLYSRERYICNSGFKRKAGTSSLTECVLNKATNVAHWTTPSLKCIRDPALVHQRPAPPSGGSGGGGSGGGSGGGGSGGNWVNVISDLKKIEDLIQSMHIDATLYTESNVHPSCKVTAMKCFLLELQVISLESGDASIHDTVQNLIILANNSLSSNGNVTESGCKECEELEEKNIKEFLQSFVHIVQAFINT
light: B1 light
notes: not restated for this mutant
B6: xmPD-1-hIL15Rasu-hIL15(E64Q/D30N N4K) (other)
heavy 1: B1 heavy 1
heavy 2: B5 heavy 2 with N559K, A664M
light: B1 light
notes: not restated for this mutant
B7: hIL-15 V49R/L69P (ligand)
chain: NWVNVISDLKKIEDLIQSMHIDATLYTESDVHPSCKVTAMKCFLLELQRISLESGDASIHDTVENLIIPANNSLSSNGNVTESGCKECEELEEKNIKEFLQSFVHIVQMFINTGGGGSGHHHHHHHHGGGLNDIFEAQKIEWHE
B8: hIL-15 V49R/I68P (ligand)
chain: B7 chain with I68P, P69L
B9: hIL-15 V49R/L69K (ligand)
chain: B7 chain with P69K
B10: hIL-15 V49R/D30P (ligand)
chain: B7 chain with D30P, P69L
B11: hIL-15 V49R/V31K (ligand)
chain: B7 chain with V31K, P69L

target: T1, human IL-2Rβ; assay: SPR 37C, fusion captured by anti-human Fc
Experimental: (§1) Anti-human Fc sensor chips were prepared at 25° C. with a running buffer of 10 mM HEPES, 150 mM NaCl, 0.05% (v/v) Tween-20, pH 7.4. All surfaces of a Biacore CM4 sensor chip were activated with a 1:1 (v/v) mixture of 400 mM EDC and 100 mM NHS for 7 minutes, at a flow rate of 10 μL/min. An anti-human Fc reagent (Goat anti-human IgG Fc-γ specific, SouthernBiotech, Birmingham, Ala., Catalog #2014-01) was diluted to 50 μg/mL in 10 mM sodium acetate (pH 4.5) and injected on all flow cells for 7 minutes at 20 μL/min. All flow cells were blocked with 100 mM ethylenediamine in 200 mM Borate buffer pH 8.5 for 7 minutes at 10 μL/min.
(§2) All protein interaction experiments were performed at 37° C. using a running buffer of 10 mM HEPES, 150 mM NaCl, 0.05% (v/v) Tween-20, pH 7.4, 1 mg/mL BSA. Anti-PD-1-hIL-15 fusion proteins were captured at 10 μg/mL at a flow rate of 10 μL/min for 2 minutes. Different fusion proteins were captured in flow cells 2, 3 and 4. No protein was captured onto flow cell 1 which was used as a reference surface. […] After each analyte injection, dissociation was monitored for 5 minutes followed by regeneration of all flow cells with three 60-second injections of 75 mM phosphoric acid. […] For kinetic analysis, the double-referenced sensorgrams were fit globally to a simple 1:1 Langmuir with mass transport binding model using Biacore T200 Evaluation Software version 2.0. For steady-state affinity analysis, the double-referenced equilibrium binding responses were fit with a 1:1 Langmuir steady-state model using Biacore T200 Evaluation Software version 2.0.

binding result | Binder
no binding (tested: 3000 nM) | B1
no binding (tested: 3000 nM) | B2
no binding (tested: 3000 nM) | B3
no binding (tested: 3000 nM) | B4

target: T2, human IL-15Rα (human, UniProt Q13261 31-205, limits assumed); assay: SPR 37C, fusion captured by anti-human Fc
T2 construct: also called hIL-15Rα; IL-15 receptor alpha
T2 sequence (Q13261 31-205 limits assumed): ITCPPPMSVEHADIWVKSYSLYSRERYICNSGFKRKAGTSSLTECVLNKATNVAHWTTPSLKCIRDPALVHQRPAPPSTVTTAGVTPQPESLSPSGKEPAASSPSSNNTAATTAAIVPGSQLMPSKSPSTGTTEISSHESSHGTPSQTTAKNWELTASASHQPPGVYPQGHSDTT
Experimental: as §1, §2

binding result | Binder
no binding (tested: 3000 nM) | B1
no binding (tested: 3000 nM) | B2
no binding (tested: 3000 nM) | B5
no binding (tested: 3000 nM) | B3
no binding (tested: 3000 nM) | B4
no binding (tested: 3000 nM) | B6

target: T1, human IL-2Rβ; assay: SPR 37C

binding result | Binder
no binding | B7
no binding | B8
no binding | B9

target: T2, human IL-15Rα; assay: SPR 37C

binding result | Binder
no binding | B10
no binding | B7
no binding | B11
no binding | B8
no binding | B9

target: T1, human IL-2Rβ; assay: SPR, steady state

Kd [nM] | Binder
> 500 | B11

target: T1, human IL-2Rβ; assay: SPR, steady state, fusion captured
Experimental: as §1, §2

Kd [nM] | Binder
315 | B5
767 | B6
